# Reference: patent US20210155689A1 (SHANGHAI PHARMAEXPLORER, published 2021)
# Positions count from the first letter of the chain named.
# T1: human LAG-3 on cells (HEK293-hLAG-3 stable cell line) (human, UniProt P18627 23-525)
# T1 sequence: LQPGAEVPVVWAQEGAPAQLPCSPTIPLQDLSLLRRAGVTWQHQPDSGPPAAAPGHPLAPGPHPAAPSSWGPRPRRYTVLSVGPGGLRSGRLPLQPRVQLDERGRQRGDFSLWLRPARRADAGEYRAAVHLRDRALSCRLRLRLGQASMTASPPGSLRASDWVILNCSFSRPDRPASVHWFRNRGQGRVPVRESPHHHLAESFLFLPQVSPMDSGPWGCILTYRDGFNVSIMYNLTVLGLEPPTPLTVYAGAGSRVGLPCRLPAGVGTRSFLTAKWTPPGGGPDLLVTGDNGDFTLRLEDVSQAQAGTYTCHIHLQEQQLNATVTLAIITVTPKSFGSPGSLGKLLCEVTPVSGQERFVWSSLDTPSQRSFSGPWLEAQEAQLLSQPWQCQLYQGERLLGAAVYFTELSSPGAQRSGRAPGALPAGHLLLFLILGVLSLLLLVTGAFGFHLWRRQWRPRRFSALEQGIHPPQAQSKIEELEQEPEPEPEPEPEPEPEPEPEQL
# T2: LAG-3-hFc protein (human LAG-3 extracellular region with hFc tag) (human, UniProt P18627 23-450)
# T2 construct: also called hLAG-3-hFc; LAG-3 protein; not shown: human IgG Fc fragment (hFc) of the pCpC vector
# T2 sequence: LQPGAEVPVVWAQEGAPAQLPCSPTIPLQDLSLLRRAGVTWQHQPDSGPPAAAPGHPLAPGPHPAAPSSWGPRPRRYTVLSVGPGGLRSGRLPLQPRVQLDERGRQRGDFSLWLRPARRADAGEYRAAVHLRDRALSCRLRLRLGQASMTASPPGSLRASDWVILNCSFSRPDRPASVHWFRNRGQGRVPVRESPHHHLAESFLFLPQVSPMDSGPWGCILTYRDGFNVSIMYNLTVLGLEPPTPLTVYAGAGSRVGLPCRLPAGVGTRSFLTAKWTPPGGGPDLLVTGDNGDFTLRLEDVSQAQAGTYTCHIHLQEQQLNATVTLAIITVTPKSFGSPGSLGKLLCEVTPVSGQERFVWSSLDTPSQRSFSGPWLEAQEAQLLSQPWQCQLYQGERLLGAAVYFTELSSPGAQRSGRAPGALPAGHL
# B1: 409B11E12 mouse-human chimeric antibody (antibody, V domains shown)
# VH: QVQLQQSGAELVRPGASVTLSCKASGYTFTDYEMHWVKQTTVHGLEWIGATDPETSYSAYNQKFKGKAILTADKSSSTAYMELRSLTSEDSAVYYCIATGWNDWGQGTSLTVSS
# VL: DLKMTQSPSSMYASLGERVTITCKASQDINSYLSWFQQKPGKSPKTLIYRANRLLDGVPSRFSGSGSGQDYSLTISSLEYEDMGIYYCLQYDEFPYTFGGGTKLEIK
# notes: also called mAb104-409B11E12
# B2: 409D4E10 mouse-human chimeric antibody (antibody, V domains shown)
# VH: B1 VH with Y27N, T41P, S56D, Y57N, S58T, A72T, A98T, T99S
# VL: B1 VL with L2I, D92N
# notes: also called mAb112-409D4E10
# Legend:
# [1] = molecular target: T1, human LAG-3 on cells (HEK293-hLAG-3 …); test: cell-based or functional assay
# [2] = molecular target: T2, LAG-3-hFc protein (human LAG-3 …); test: FACS, inhibition of LAG-3-hFc binding to MHC II on Raji cells, antibody 0.000 nM
# Procedure: The FACS reaction plate incubating the Raji cells was centrifuged to discard the supernatant. The above mixture was added as 100 μl per well to Raji cells and incubated on ice for 1-2 hours. The plate was washed twice with blocking solution (PBS, 2% fetal bovine serum) by centrifugation, added with 100 microliters of fluorescent (Alexa 488)-labeled secondary antibodies per well, and incubated on ice for 1.0 hours. The plate was washed 2-3 times by centrifugation with blocking solution (PBS, 2% fetal bovine serum), added with 100 microliters of PBS per well to suspend cells, and detected using FACS (FACS Calibur, BD) and the results were analyzed. Wherein, the IgG control was murine IgG, and the data in the table is the inhibition rate (%).
Binder,"IL-2 production, SEB-dependent PBMC stimulation test, 0.0032 ug/ml, N = 1 [1] [pg/mL]","IL-2 production, SEB-dependent PBMC stimulation test, 0.0032 ug/ml, N = 2 [1] [pg/mL]","IL-2 production, SEB-dependent PBMC stimulation test, 0.016 ug/ml, N = 1 [1] [pg/mL]","IL-2 production, SEB-dependent PBMC stimulation test, 0.016 ug/ml, N = 2 [1] [pg/mL]","IL-2 production, SEB-dependent PBMC stimulation test, 0.08 ug/ml, N = 1 [1] [pg/mL]","IL-2 production, SEB-dependent PBMC stimulation test, 0.08 ug/ml, N = 2 [1] [pg/mL]","IL-2 production, SEB-dependent PBMC stimulation test, 0.4 ug/ml, N = 1 [1] [pg/mL]","IL-2 production, SEB-dependent PBMC stimulation test, 0.4 ug/ml, N = 2 [1] [pg/mL]","IL-2 production, SEB-dependent PBMC stimulation test, 2 ug/ml, N = 1 [1] [pg/mL]","IL-2 production, SEB-dependent PBMC stimulation test, 2 ug/ml, N = 2 [1] [pg/mL]","IL-2 production, SEB-dependent PBMC stimulation test, 10 ug/ml, N = 1 [1] [pg/mL]","IL-2 production, SEB-dependent PBMC stimulation test, 10 ug/ml, N = 2 [1] [pg/mL]",Inhibition rate (%) [2] [%]
B1,1340,1190,1720,1230,1550,1530,2820,1990,2540,1920,3140,3010,-11.8
B2,1660,1240,1250,1450,1630,1420,2170,2160,2770,1940,2740,2100,-1.7
